In publication PMC3005623 (Journal of molecular biology, 2010):
Read-outs that look alike come from different tables or passages of the source.

Experiments:
[1] = molecular target: the molecule itself; test: electron microscopy of lipid monolayers
[2] = molecular target: the molecule itself; test: electron microscopy of lipid monolayers; remark: listed apart in the source

Protein	binding result [1]	binding result [2]
Cdc12–(His)6-Cdc3–Cdc10–Cdc11(Δ306–415) complex (complex, S. cerevisiae) chain 1: MSAATATAAPVPPPVGISNLPNQRYKIVNEEGGTFTVMLCGESGLGKTTFINTLFQTVLKRADGQQHRQEPIRKTVEIDITRALLEEKHFELRVNVIDTPGFGDNVNNNKAWQPLVDFIDDQHDSYMRQEQQPYRTKKFDLRVHAVLYFIRPTGHGLKPIDIETMKRLSTRANLIPVIAKADTLTAQELQQFKSRIRQVIEAQEIRIFTPPLDADSKEDAKSGSNPDSAAVEHARQLIEAMPFAIVGSEKKFDNGQGTQVVARKYPWGLVEIENDSHCDFRKLRALLLRTYLLDLISTTQEMHYETYRRLRLEGHENTGEGNEDFTLPAIAPARKLSHNPRYKEEENALKKYFTDQVKAEEQRFRQWEQNIVNERIRLNGDLEEIQGKVKKLEEQVKSLQVKKSHLK chain 2: MSLKEEQVSIKQDPEQEERQHDQFNDVQIKQESQDHDGVDSQYTNGTQNDDSERFEAAESDVKVEPGLGMGITSSQSEKGQVLPDQPEIKFIRRQINGYVGFANLPKQWHRRSIKNGFSFNLLCVGPDGIGKTTLMKTLFNNDDIEANLVKDYEEELANDQEEEEGQGEGHENQSQEQRHKVKIKSYESVIEENGVKLNLNVIDTEGFGDFLNNDQKSWDPIIKEIDSRFDQYLDAENKINRHSINDKRIHACLYFIEPTGHYLKPLDLKFMQSVYEKCNLIPVIAKSDILTDEEILSFKKTIMNQLIQSNIELFKPPIYSNDDAENSHLSERLFSSLPYAVIGSNDIVENYSGNQVRGRSYPWGVIEVDNDNHSDFNLLKNLLIKQFMEELKERTSKILYENYRSSKLAKLGIKQDNSVFKEFDPISKQQEEKTLHEAKLAKLEIEMKTVFQQKVSEKEKKLQKSETELFARHKEMKEKLTKQLKALEDKKKQLELSINSASPNVNHSPVPTKKKGFLR chain 3: MDPLSSVQPASYVGFDTITNQIEHRLLKKGFQFNIMVVGQSGLGKSTLINTLFASHLIDSATGDDISALPVTKTTEMKISTHTLVEDRVRLNINVIDTPGFGDFIDNSKAWEPIVKYIKEQHSQYLRKELTAQRERFITDTRVHAILYFLQPNGKELSRLDVEALKRLTEIANVIPVIGKSDTLTLDERTEFRELIQNEFEKYNFKIYPYDSEELTDEELELNRSVRSIIPFAVVGSENEIEINGETFRGRKTRWSAINVEDINQCDFVYLREFLIRTHLQDLIETTSYIHYEGFRARQLIALKENANSRSSAHMSSNAIQR chain 4: MSGIIDASSALRKRKHLKRGITFTVMIVGQSGSGRSTFINTLCGQQVVDTSTTILLPTDTSTEIDLQLREETVELEDDEGVKIQLNIIDTPGFGDSLDNSPSFEIISDYIRHQYDEILLEESRVRRNPRFKDGRVHCCLYLINPTGHGLKEIDVEFIRQLGSLVNIIPVISKSDSLTRDELKLNKKLIMEDIDRWNLPIYNFPFDEDEISDEDYETNMYLRTLLPFAIIGSNEVYEMGGDVGTIRGRKYPWGILDVEDSSISDFVILRNALLISHLHDLKNYTHEILYERYRTEALSGESVAAES	binds	
(His)6–Cdc12-Cdc10-Cdc3 complex (complex, S. cerevisiae) chain 1: MSAATATAAPVPPPVGISNLPNQRYKIVNEEGGTFTVMLCGESGLGKTTFINTLFQTVLKRADGQQHRQEPIRKTVEIDITRALLEEKHFELRVNVIDTPGFGDNVNNNKAWQPLVDFIDDQHDSYMRQEQQPYRTKKFDLRVHAVLYFIRPTGHGLKPIDIETMKRLSTRANLIPVIAKADTLTAQELQQFKSRIRQVIEAQEIRIFTPPLDADSKEDAKSGSNPDSAAVEHARQLIEAMPFAIVGSEKKFDNGQGTQVVARKYPWGLVEIENDSHCDFRKLRALLLRTYLLDLISTTQEMHYETYRRLRLEGHENTGEGNEDFTLPAIAPARKLSHNPRYKEEENALKKYFTDQVKAEEQRFRQWEQNIVNERIRLNGDLEEIQGKVKKLEEQVKSLQVKKSHLK chain 2: MDPLSSVQPASYVGFDTITNQIEHRLLKKGFQFNIMVVGQSGLGKSTLINTLFASHLIDSATGDDISALPVTKTTEMKISTHTLVEDRVRLNINVIDTPGFGDFIDNSKAWEPIVKYIKEQHSQYLRKELTAQRERFITDTRVHAILYFLQPNGKELSRLDVEALKRLTEIANVIPVIGKSDTLTLDERTEFRELIQNEFEKYNFKIYPYDSEELTDEELELNRSVRSIIPFAVVGSENEIEINGETFRGRKTRWSAINVEDINQCDFVYLREFLIRTHLQDLIETTSYIHYEGFRARQLIALKENANSRSSAHMSSNAIQR chain 3: MSLKEEQVSIKQDPEQEERQHDQFNDVQIKQESQDHDGVDSQYTNGTQNDDSERFEAAESDVKVEPGLGMGITSSQSEKGQVLPDQPEIKFIRRQINGYVGFANLPKQWHRRSIKNGFSFNLLCVGPDGIGKTTLMKTLFNNDDIEANLVKDYEEELANDQEEEEGQGEGHENQSQEQRHKVKIKSYESVIEENGVKLNLNVIDTEGFGDFLNNDQKSWDPIIKEIDSRFDQYLDAENKINRHSINDKRIHACLYFIEPTGHYLKPLDLKFMQSVYEKCNLIPVIAKSDILTDEEILSFKKTIMNQLIQSNIELFKPPIYSNDDAENSHLSERLFSSLPYAVIGSNDIVENYSGNQVRGRSYPWGVIEVDNDNHSDFNLLKNLLIKQFMEELKERTSKILYENYRSSKLAKLGIKQDNSVFKEFDPISKQQEEKTLHEAKLAKLEIEMKTVFQQKVSEKEKKLQKSETELFARHKEMKEKLTKQLKALEDKKKQLELSINSASPNVNHSPVPTKKKGFLR		binds
